{"source": "patent US20250019435A1", "about": "(ALBERT EINSTEIN COLLEGE OF MEDICINE, published 2025)", "binders": {"B1": {"name": "PVR-Ig fusion protein (Fc fusion, UniProt P15151 27-343, looked up)", "chain": "GDVVVQAPTQVPGFLGDSVTLPCYLQVPNMEVTHVSQLTWARHGESGSMAVFHQTQGPSYSESKRLEFVAARLGAELRNASLRMFGLRVEDEGNYTCLFVTFPQGSRSVDIWLRVLAKPQNTAEVQKVQLTGEPVPMARCVSTGGRPPAQITWHSDLGGMPNTSQVPGFLSGTVTVTSLWILVPSSQVDGKNVTCKVEHESFEKPQLLTVNLTVYYPPEVSISGYDNNWYLGQNEATLTCDARSNPEPTGYNWSTTMGPLPPFAVAQGAQLLIRPVDKPINTTLICNVTNALGARQAELTVQVKEGPPSEHSGISRN", "notes": "Bought (R&D Systems); also called PVR-Ig protein; not shown: Ig part, detected with anti-human IgG Fc"}, "B2": {"name": "CD112-Ig fusion protein (Fc fusion, UniProt Q92692 32-360, looked up)", "chain": "QDVRVQVLPEVRGQLGGTVELPCHLLPPVPGLYISLVTWQRPDAPANHQNVAAFHPKMGPSFPSPKPGSERLSFVSAKQSTGQDTEAELQDATLALHGLTVEDEGNYTCEFATFPKGSVRGMTWLRVIAKPKNQAEAQKVTFSQDPTTVALCISKEGRPPARISWLSSLDWEAKETQVSGTLAGTVTVTSRFTLVPSGRADGVTVTCKVEHESFEEPALIPVTLSVRYPPEVSISGYDDNWYLGRTDATLSCDVRSNPEPTGYDWSTTSGTFPTSAVAQGSQLVIHAVDSLFNTTFVCTVTNAVGMGRAEQVIFVRETPNTAGAGATGG", "notes": "Bought (R&D Systems); also called nectin-2; not shown: Ig part, detected with anti-human IgG Fc"}, "B3": {"name": "KIR2DL5B*003 allele expressed on 3T3 cells (receptor)", "chain": "HEGGQDKPLLSAWPSAVVPRGGHVTLLCRSRLGFTIFSLYKEDGVPVPELYNKIFWKSILMGPVTPAHAGTYRCRGSHPRSPIEWSAPSNPLVIMVTGLFGKPSLSAQPGPTVRTGENVTLSCSSRSSFDMYHLSREGRAHEPRLPAVPSVNGTFQADFPLGPATHGGTYTCFGSLHDSPYEWSDPSDPLLVSVTGNSSSSSSSPTEPSSKTGIRRHLHILIGTSVAIILFIILFFFLLHCCCSNKKNAAVMDQEPAGDRTVNREDSDDQDPQEVTYAQLDHCVFTQTKITSPSQRPKTPPTDTTMYMELPNAKPRSLSPAHKHHSQALRGSSRETTALSQNRVASSHVPAAGI"}}, "key": {"[1]": {"target": "T1, KIR2DL4 expressed on 3T3 cells (human, UniProt Q99706 22-377)", "T1 construct": "whole, on cells; also called KIR2DL4/3T3", "T1 sequence (Q99706 22-377)": "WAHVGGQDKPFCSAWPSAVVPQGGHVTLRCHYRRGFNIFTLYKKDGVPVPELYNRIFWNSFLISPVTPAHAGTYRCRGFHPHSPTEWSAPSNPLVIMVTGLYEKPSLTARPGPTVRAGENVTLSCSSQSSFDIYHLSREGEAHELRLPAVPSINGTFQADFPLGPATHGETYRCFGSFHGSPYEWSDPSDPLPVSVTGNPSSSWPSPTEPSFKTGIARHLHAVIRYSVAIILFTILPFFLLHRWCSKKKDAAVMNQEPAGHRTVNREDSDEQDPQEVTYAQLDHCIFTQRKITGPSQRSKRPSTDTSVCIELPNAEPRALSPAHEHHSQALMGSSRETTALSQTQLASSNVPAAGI", "experiment": "flow cytometry, PVR-Ig titrated on KIR2DL4/3T3", "experimental": "Specifically, a cell-based binding assay was performed by incubating PVR-Ig fusion protein with KIR2DL5- or KIR2DL4-expressing 3T3 cells. Conversely, KIR2DL5 was selectively bound by PVR, but not by CD112 (also known as nectin-2), another ligand for TIGIT and DNAM-1 in the nectin/nectin-like family (FIG. 10A). Furthermore, anti-KIR2DL5 mAb F8B30 blocked KIR2DL5-PVR interaction (EC₅₀=0.095 μM) (FIG. 10B). The specificity of KIR2DL5 binding to PVR was also evidenced by an intercellular interaction assay, in which 3T3 cells expressing PVR interacted with 3T3 cells expressing KIR2DL5, but not with cells expressing KIR3DL3 (FIG. 18B), a newly identified inhibitory receptor of HHLA2 (Zang, 2022; Wei 2021; Bhatt 2021).\n(§1) Fusion protein cell binding assays. PVR-Ig, CD112-Ig, or hIgG (R&D Systems) was incubated with corresponding 3T3 cells on ice for 45 minutes, followed by incubation with APC- or PE-conjugated anti-human IgG Fc antibody (1:100; clone HP6017, BioLegend) on ice for 30 minutes. Cells were then acquired on an LSR II flow cytometer (BD Biosciences). In the anti-KIR2DL5 mAb blocking assay, KIR2DL5/3T3 cells were preincubated with a serial concentration of anti-KIR2DL5 mAb F8B30 or mIgG1 on ice for 30 minutes. After washing, the cells were then incubated with 20 μg/mL PVR-Ig or hIgG on ice for 45 minutes, followed by incubation with APC anti-human IgG Fc antibody on ice for 30 minutes. […]"}, "[2]": {"target": "T2, KIR2DL5A*005 allele expressed on 3T3 cells (human)", "T2 construct": "also called 2D5A*005", "experiment": "flow cytometry, PVR-Ig on 3T3 cells expressing KIR2DL5 alleles", "experimental": "(§2) FIG. 10A-E: Allelic polymorphism affected PVR binding of KIR2DL5. (A) Flow cytometric analysis of PVR-Ig or CD112-Ig (open) or control hIg (shaded) binding to KIR2DL5/3T3. (B) Flow cytometric analysis of PVR-Ig binding to KIR2DL5/3T3 in the presence of increasing concentrations of F8B30. (C) KIR2DL5 bound to different sites of PVR from other receptors. PVR-Ig protein was preincubated with indicated His-tagged protein and then stained KIR2DL5/3T3 cells. […] (D) Flow cytometric analysis of PVR-Ig (open) or control hIg (shaded) binding on 3T3 cells expressing WT, DO-deleted, or D2-deleted KIR2DL5. Parental 3T3 cells were used as a negative control. (E) Flow cytometric analysis of PVR-Ig or control hIg (shaded) binding on 3T3 cells expressing different KIR2DL5 alleles. In A-E, data are representative of 2 independent experiments.\nas §1, with “minutes.” for “minutes. After washing, the cells were then incubated with 20 μg/mL PVR-Ig or hIgG on ice for 45 minutes, followed by incubation with APC anti-human IgG Fc antibody on ice for 30 minutes.”"}, "[3]": {"target": "T3, KIR2DL5 wild type (KIR2DL5A*001) expressed on cells (human, UniProt Q8N109 22-375)", "T3 construct": "UniProtKB Q8N109 and NP_065396.1 are printed for this entry; In the SHP-1/SHP-2 co-immunoprecipitation the cells were treated with pervanadate and the receptor was tyrosine-phosphorylated; also called KIR2DL5/3T3; WT KIR2DL5", "experiment": "flow cytometry, fusion protein on KIR2DL5/3T3, anti-human IgG Fc detection", "experimental": "PVR-Ig protein was preincubated with indicated His-tagged protein and then stained KIR2DL5/3T3 cells. […] (D) Flow cytometric analysis of PVR-Ig (open) or control hIg (shaded) binding on 3T3 cells expressing WT, DO-deleted, or D2-deleted KIR2DL5. Parental 3T3 cells were used as a negative control. (E) Flow cytometric analysis of PVR-Ig or control hIg (shaded) binding on 3T3 cells expressing different KIR2DL5 alleles. In A-E, data are representative of 2 independent experiments.\nas §1"}, "PVR-Ig fusion protein": {"target": "B1", "experiment": "flow cytometry, PVR-Ig on 3T3 cells expressing KIR2DL5 alleles", "experimental": "as §2\nas §1, with “minutes.” for “minutes. After washing, the cells were then incubated with 20 μg/mL PVR-Ig or hIgG on ice for 45 minutes, followed by incubation with APC anti-human IgG Fc antibody on ice for 30 minutes.”"}}}
{"binder": "B1", "values": [{"measurement": "binding result", "setting": "[1]", "result": "no binding (tested: 1.28 µM)"}, {"measurement": "binding result", "setting": "[2]", "result": "no binding"}]}
{"binder": "B2", "values": [{"measurement": "binding result", "setting": "[3]", "result": "no binding"}]}
{"binder": "B3", "values": [{"measurement": "binding result", "setting": "PVR-Ig fusion protein", "result": "no binding"}]}
